Positions count from the first letter of the chain named.
What was measured:
Assay in all cases: cleavage_in_vitro
[1] = molecular target: T1, SalI (Streptomyces albus G) (UniProt Q53608); conditions: NEB4, 37 C, Mg2+; FI NEB1-3: 8, 1, 32
T1 sequence: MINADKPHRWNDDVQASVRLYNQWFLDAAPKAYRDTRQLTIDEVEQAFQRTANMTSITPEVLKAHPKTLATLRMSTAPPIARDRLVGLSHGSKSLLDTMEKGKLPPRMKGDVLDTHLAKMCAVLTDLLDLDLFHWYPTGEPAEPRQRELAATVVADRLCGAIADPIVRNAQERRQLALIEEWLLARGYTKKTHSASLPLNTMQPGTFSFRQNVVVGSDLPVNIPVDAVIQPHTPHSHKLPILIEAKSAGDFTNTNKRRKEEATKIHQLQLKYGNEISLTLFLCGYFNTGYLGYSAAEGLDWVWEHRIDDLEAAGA

[2] = molecular target: T2, SalI-HF R107A (Streptomyces albus G) (UniProt Q53608); conditions: NEB4, 37 C, Mg2+; FI NEB1-3: >=8000, >=64000, >=4000
T2 sequence: T1 sequence with R107A

[3] = tested on: T3, AvrII-HF Y104F (Anabaena variabilis); conditions: NEB4, 37 C, Mg2+; FI NEB1-3: 500, >=500, >=16
T3 sequence: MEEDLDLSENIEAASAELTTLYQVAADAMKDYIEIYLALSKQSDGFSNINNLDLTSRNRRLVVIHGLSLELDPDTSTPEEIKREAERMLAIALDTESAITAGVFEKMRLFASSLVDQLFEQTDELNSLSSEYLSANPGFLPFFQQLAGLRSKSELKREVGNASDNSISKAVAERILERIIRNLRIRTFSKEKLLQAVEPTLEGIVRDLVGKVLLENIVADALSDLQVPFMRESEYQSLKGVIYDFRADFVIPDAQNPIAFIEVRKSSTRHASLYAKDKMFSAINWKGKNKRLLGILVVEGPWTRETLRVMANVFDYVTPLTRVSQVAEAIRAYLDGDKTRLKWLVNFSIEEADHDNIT

[4] = tested on: T4, AvrII (Anabaena variabilis); conditions: NEB4, 37 C, Mg2+; FI NEB1-3: 64, 8, 32
T4 sequence: T3 sequence with F104Y

[5] = tested on: T5, BspQI-HF K279P/R388F (Bacillus sphaericus); conditions: NEB4, 50 C, Mg2+; FI NEB1-3: >=1000, >=1000, >=64
T5 sequence: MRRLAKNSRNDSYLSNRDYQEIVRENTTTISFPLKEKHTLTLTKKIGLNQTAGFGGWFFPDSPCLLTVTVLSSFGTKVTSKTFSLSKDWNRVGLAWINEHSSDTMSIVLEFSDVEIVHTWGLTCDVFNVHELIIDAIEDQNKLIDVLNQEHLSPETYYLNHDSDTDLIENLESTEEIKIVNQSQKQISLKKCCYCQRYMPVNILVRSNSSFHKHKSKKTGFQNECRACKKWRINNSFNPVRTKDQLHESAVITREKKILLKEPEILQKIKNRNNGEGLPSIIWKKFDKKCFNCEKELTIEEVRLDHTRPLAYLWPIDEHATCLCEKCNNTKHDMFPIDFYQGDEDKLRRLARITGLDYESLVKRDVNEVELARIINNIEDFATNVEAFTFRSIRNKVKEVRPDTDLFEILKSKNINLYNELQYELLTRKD

[6] = molecular target: T6, PvuII (Proteus vulgaris) (UniProt P23657); conditions: NEB4, 37 C, Mg2+; FI NEB1-3: 250, 16, 8
T6 sequence: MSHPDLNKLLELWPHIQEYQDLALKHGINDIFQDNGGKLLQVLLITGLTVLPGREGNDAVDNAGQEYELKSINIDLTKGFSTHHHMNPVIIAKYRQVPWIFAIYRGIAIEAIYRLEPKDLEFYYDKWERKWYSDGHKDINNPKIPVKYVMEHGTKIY

[7] = molecular target: T7, PvuII-HF T46G (Proteus vulgaris) (UniProt P23657); conditions: NEB4, 37 C, Mg2+; FI NEB1-3: >=250, >=2000, >=250
T7 sequence: T6 sequence with T46G

## HindIII-digested lambda DNA
[1]
  activity (fidelity index): 1
[2]
  activity (fidelity index): > 32000

## T7 DNA
[3]
  activity (fidelity index): > 1000
[4]
  activity (fidelity index): 32

## pUC19
[5]
  activity (fidelity index): > 4000

## pBR322
[6]
  activity (fidelity index): 0.25
[7]
  activity (fidelity index): 500

Reference: patent publication US20130115678
